The experiment addresses T1, KLC2-TPR S328N mutant (human, UniProt Q9H0B6-1 217-480, S328N).
T1 construct: kinesin light chain 2 (KLC2), human, TPR domain, residues 217-480 of GenBank NP_073733, with S328N; made from the KLC2-TPR construct with a QuickChange kit; also called KLC2-S328N; not shown: His6 (from the vector pET28-LIC, modified)
As to the kind of experiment: ITC; peptide (1-3 mM) in the syringe injected into 60-130 uM KLC1-TPR or KLC2-TPR (or mutant) in the cell; 25 C; 20 mM Bis-Tris pH 6.5, 500 mM NaCl, 0.5 mM TCEP; one-site binding model. As to conditions: both partners purified. (ITC needs no label: the signal is the heat of the interaction.)

T1 sequence (Q9H0B6 217-480 S328N): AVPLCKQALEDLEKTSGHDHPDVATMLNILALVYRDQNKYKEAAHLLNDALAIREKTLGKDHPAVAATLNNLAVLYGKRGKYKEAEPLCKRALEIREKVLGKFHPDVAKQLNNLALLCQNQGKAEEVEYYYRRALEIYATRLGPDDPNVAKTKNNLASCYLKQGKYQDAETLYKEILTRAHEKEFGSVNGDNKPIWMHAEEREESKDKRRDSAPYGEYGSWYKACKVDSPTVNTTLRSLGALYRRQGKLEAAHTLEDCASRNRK

B1: JIP1 peptide (C-terminal residues of JNK-interacting protein 1) (peptide)
peptide: Ac-EYTCPTEDIYLE-OH
notes: also called JIP peptide; source: synthetic peptide (Tufts University Core Facility)
As usually defined, the Kd is the constant that tells how readily two partners part at equilibrium. The low end stands for a tighter complex, the high end for a looser complex. The term stoichiometry N denotes a count of units in the complex or per binding partner. Consider B1, for which the Kd was found to be 18.7 µM, the dH is -15.9 kcal/mol and the “stoichiometry N” value worked out at 1.18.

The values are drawn from PMC3314626, “Crystal Structures of the Tetratricopeptide Repeat Domains of Kinesin Light Chains: Insight into Cargo Recognition Mechanisms” (PLoS ONE, 2012).
